Results as given in publication PMC5325763 (Cell, 2017).

Target: T1, FLAG-tagged FAAP20 (human, UniProt Q6NZ36 1-180)
T1 sequence (looked up): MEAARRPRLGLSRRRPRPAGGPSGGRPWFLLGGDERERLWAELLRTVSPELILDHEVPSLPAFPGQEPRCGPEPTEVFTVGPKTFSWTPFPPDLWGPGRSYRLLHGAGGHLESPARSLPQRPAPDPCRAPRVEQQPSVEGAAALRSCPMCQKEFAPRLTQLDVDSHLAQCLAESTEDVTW
Assay: LUMIER

B1: Renilla luciferase-tagged FANCA R880Q (natural protein, human, UniProt O15360-1 1-1455, looked up)
chain: MSDSWVPNSASGQDPGGRRRAWAELLAGRVKREKYNPERAQKLKESAVRLLRSHQDLNALLLEVEGPLCKKLSLSKVIDCDSSEAYANHSSSFIGSALQDQASRLGVPVGILSAGMVASSVGQICTAPAETSHPVLLTVEQRKKLSSLLEFAQYLLAHSMFSRLSFCQELWKIQSSLLLEAVWHLHVQGIVSLQELLESHPDMHAVGSWLFRNLCCLCEQMEASCQHADVARAMLSDFVQMFVLRGFQKNSDLRRTVEPEKMPQVTVDVLQRMLIFALDALAAGVQEESSTHKIVRCWFGVFSGHTLGSVISTDPLKRFFSHTLTQILTHSPVLKASDAVQMQREWSFARTHPLLTSLYRRLFVMLSAEELVGHLQEVLETQEVHWQRVLSFVSALVVCFPEAQQLLEDWVARLMAQAFESCQLDSMVTAFLVVRQAALEGPSAFLSYADWFKASFGSTRGYHGCSKKALVFLFTFLSELVPFESPRYLQVHILHPPLVPGKYRSLLTDYISLAKTRLADLKVSIENMGLYEDLSSAGDITEPHSQALQDVEKAIMVFEHTGNIPVTVMEASIFRRPYYVSHFLPALLTPRVLPKVPDSRVAFIESLKRADKIPPSLYSTYCQACSAAEEKPEDAALGVRAEPNSAEEPLGQLTAALGELRASMTDPSQRDVISAQVAVISERLRAVLGHNEDDSSVEISKIQLSINTPRLEPREHMAVDLLLTSFCQNLMAASSVAPPERQGPWAALFVRTMCGRVLPAVLTRLCQLLRHQGPSLSAPHVLGLAALAVHLGESRSALPEVDVGPPAPGAGLPVPALFDSLLTCRTRDSLFFCLKFCTAAISYSLCKFSSQSRDTLCSCLSPGLIKKFQFLMFRLFSEAQQPLSEEDVASLSWRPLHLPSADWQRAALSLWTHRTFREVLKEEDVHLTYQDWLHLELEIQPEADALSDTERQDFHQWAIHEHFLPESSASGGCDGDLQAACTILVNALMDFHQSSRSYDHSENSDLVFGGRTGNEDIISRLQEMVADLELQQDLIVPLGHTPSQEHFLFEIFRRRLQALTSGWSVAASLQRQRELLMYKRILLRLPSSVLCGSSFQAEQPITARCEQFFHLVNSEMRNFCSHGGALTQDITAHFFRGLLNACLRSRDPSLMVDFILAKCQTKCPLILTSALVWWPSLEPVLLCRWRRHCQSPLPRELQKLQEGRQFASDFLSPEAASPAPNPDWLSAAALHFAIQQVREENIRKQLKKLDCEREELLVFLFFFSLMGLLSSHLTSNSTTDLPKAFHVCAAILECLEKRKISWLALFQLTESDLRLGRLLLRVAPDQHTRLLPFAFYSLLSYFHEDAAIREEAFLHVAVDMYLKLVQLFVAGDTSTVSPPAGRSLELKGQGNPVELITKARLFLLQLIPRCPKKSFSHVAELLADRGDCDPEVSAALQSRQQAAPDADLSQEPHLF
With B1 as the binder, how does the “fold weaker binding than wild-type FANCA” value read?
The value was ~8 fold.
